Data from patent publication US20230212549A1 (3B PHARMACEUTICALS, published 2023).
Where “and” joins values, the source holds several entries; their conditions need not be identical. Identical values can stand only once. Numbered stars: 1 amine (or outer) side, 2 acyl side, 3 side chain; on linkers, the order of the positions; unused ones are H or OH. Bridge positions count the residues as written; N and C are the ends. Square brackets hold non-standard residues; d marks the D form. Primed or numbered codes have the meaning given here. * marks the point of attachment. tMeBn(DOTA-PP) = 1,3,5-trimethylbenzylidene, two thioethers to Cys, third CH2 bound to one N of piperazine whose other N bears DOTA, O=C(O)CN1CCN(CC(=O)O)CCN(CC(=O)N2CCN(Cc3cc(C[*:1])cc(C[*:2])c3)CC2)CCN(CC(=O)O)CC1; Ttds″ = 1,13-diamino-4,7,10-trioxatridecan-succinamic acid spacer, O=C(CCC(=O)[*:2])NCCCOCCOCCOCCCN[*:1]; TBMB(SCH2CH2NH-DOTA) = O=C(O)CN1CCN(CC(=O)O)CCN(CC(=O)NCCSCc2cc(C[*:1])cc(C[*:2])c2)CCN(CC(=O)O)CC1; DOTA = O=C(O)CN1CCN(CC(=O)O)CCN(CC(=O)*)CCN(CC(=O)O)CC1; mXylylene = c1cc(C[*:1])cc(C[*:2])c1; Hexanoyl = CCCCCC(=O)*; NH(CH2)5NH2 = NCCCCCN*; GABA = NCCCC(=O)O; βAla = NCCC(=O)O

How the values were obtained:
[1] = molecular target: Recombinant human FAP (R&D systems, #3715-SE) (human, UniProt Q12884 26-760); experiment: cell-based or functional assay
[2] = molecular target: T1, fibroblast activation protein (FAP) on FAP-expressing human WI-38 fibroblasts (human, UniProt Q12884 1-760); experiment: competitive FACS, WI-38 cells, vs Cy5 tracer m3; A = pIC50 >8.0
T1 construct: also called human FAP

Binder	pIC50 Category (Activity) [1]	pIC50 Category (FACS) [2] [pIC50]
Hexanoyl-CPPTEFCDHFRD-NH2 (linker 1-7 via mXylylene; SMILES CCCCCC(=O)N[C@H]1CSCc2cccc(c2)CSC[C@@H](C(=O)N[C@@H](CC(=O)O)C(=O)N[C@@H](Cc2c[nH]cn2)C(=O)N[C@@H](Cc2ccccc2)C(=O)N[C@@H](CCCNC(=N)N)C(=O)N[C@@H](CC(=O)O)C(N)=O)NC(=O)[C@H](Cc2ccccc2)NC(=O)[C@H](CCC(=O)O)NC(=O)[C@H]([C@@H](C)O)NC(=O)[C@@H]2CCCN2C(=O)[C@@H]2CCCN2C1=O) [Hex-[Cys(3MeBn)-Pro-Pro-Thr-Glu-Phe-Cys]-Asp-His-Phe-Arg-Asp-NH2]	> 8 pIC50	> 8
Hexanoyl-CPPTEFCD[GABA]R-NH2 (linker 1-7 via mXylylene; SMILES CCCCCC(=O)N[C@H]1CSCc2cccc(c2)CSC[C@@H](C(=O)N[C@@H](CC(=O)O)C(=O)NCCCC(=O)N[C@@H](CCCNC(=N)N)C(N)=O)NC(=O)[C@H](Cc2ccccc2)NC(=O)[C@H](CCC(=O)O)NC(=O)[C@H]([C@@H](C)O)NC(=O)[C@@H]2CCCN2C(=O)[C@@H]2CCCN2C1=O, also called 3BP-3300) [Hex-[Cys(3MeBn)-Pro-Pro-Thr-Glu-Phe-Cys]-Asp-Gab-Arg-NH2]	> 8 pIC50	> 8
Hexanoyl-CPPTEFCD[Ttds″]K(DOTA)-NH2 (linker 1-7 via mXylylene; SMILES CCCCCC(=O)N[C@H]1CSCc2cccc(c2)CSC[C@@H](C(=O)N[C@@H](CC(=O)O)C(=O)NCCCOCCOCCOCCCNC(=O)CCC(=O)N[C@@H](CCCCNC(=O)CN2CCN(CC(=O)O)CCN(CC(=O)O)CCN(CC(=O)O)CC2)C(N)=O)NC(=O)[C@H](Cc2ccccc2)NC(=O)[C@H](CCC(=O)O)NC(=O)[C@H]([C@@H](C)O)NC(=O)[C@@H]2CCCN2C(=O)[C@@H]2CCCN2C1=O, also called 3BP-3396) [Hex-[Cys(3MeBn)-Pro-Pro-Thr-Glu-Phe-Cys]-Asp-Ttds-Lys(DOTA)-NH2]	> 8 pIC50	> 8
Hexanoyl-CPPTQFCD[Ttds″]K(DOTA)-NH2 (linker 1-7 via mXylylene; SMILES CCCCCC(=O)N[C@H]1CSCc2cccc(c2)CSC[C@@H](C(=O)N[C@@H](CC(=O)O)C(=O)NCCCOCCOCCOCCCNC(=O)CCC(=O)N[C@@H](CCCCNC(=O)CN2CCN(CC(=O)O)CCN(CC(=O)O)CCN(CC(=O)O)CC2)C(N)=O)NC(=O)[C@H](Cc2ccccc2)NC(=O)[C@H](CCC(N)=O)NC(=O)[C@H]([C@@H](C)O)NC(=O)[C@@H]2CCCN2C(=O)[C@@H]2CCCN2C1=O, also called 3BP-3395) [Hex-[Cys(3MeBn)-Pro-Pro-Thr-Gln-Phe-Cys]-Asp-Ttds-Lys(DOTA)-NH2]	> 8 pIC50	> 8
Hexanoyl-CPPTQFCD-NH2 (linker 1-7 via tMeBn(DOTA-PP); SMILES CCCCCC(=O)N[C@H]1CSCc2cc(cc(CN3CCN(C(=O)CN4CCN(CC(=O)O)CCN(CC(=O)O)CCN(CC(=O)O)CC4)CC3)c2)CSC[C@@H](C(=O)N[C@@H](CC(=O)O)C(N)=O)NC(=O)[C@H](Cc2ccccc2)NC(=O)[C@H](CCC(N)=O)NC(=O)[C@H]([C@@H](C)O)NC(=O)[C@@H]2CCCN2C(=O)[C@@H]2CCCN2C1=O) [Hex-[Cys(tMeBn(DOTA-PP))-Pro-Pro-Thr-Gln-Phe-Cys]-Asp-NH2]	> 8 pIC50	> 8
H-[dM]CPPTEFCDHFRD-NH2 (linker 2-8 via mXylylene; SMILES CSCC[C@@H](N)C(=O)N[C@H]1CSCc2cccc(c2)CSC[C@@H](C(=O)N[C@@H](CC(=O)O)C(=O)N[C@@H](Cc2c[nH]cn2)C(=O)N[C@@H](Cc2ccccc2)C(=O)N[C@@H](CCCNC(=N)N)C(=O)N[C@@H](CC(=O)O)C(N)=O)NC(=O)[C@H](Cc2ccccc2)NC(=O)[C@H](CCC(=O)O)NC(=O)[C@H]([C@@H](C)O)NC(=O)[C@@H]2CCCN2C(=O)[C@@H]2CCCN2C1=O, also called 3BP-2976) [H-met-[Cys(3MeBn)-Pro-Pro-Thr-Glu-Phe-Cys]-Asp-His-Phe-Arg-Asp-NH2]	> 8 pIC50	> 8
Ac-MCPPTEFCDHFRD-NH2 (linker 2-8 via mXylylene; SMILES CSCC[C@H](NC(C)=O)C(=O)N[C@H]1CSCc2cccc(c2)CSC[C@@H](C(=O)N[C@@H](CC(=O)O)C(=O)N[C@@H](Cc2c[nH]cn2)C(=O)N[C@@H](Cc2ccccc2)C(=O)N[C@@H](CCCNC(=N)N)C(=O)N[C@@H](CC(=O)O)C(N)=O)NC(=O)[C@H](Cc2ccccc2)NC(=O)[C@H](CCC(=O)O)NC(=O)[C@H]([C@@H](C)O)NC(=O)[C@@H]2CCCN2C(=O)[C@@H]2CCCN2C1=O, also called 3BP-2975) [Ac-Met-[Cys(3MeBn)-Pro-Pro-Thr-Glu-Phe-Cys]-Asp-His-Phe-Arg-Asp-NH2]	> 8 pIC50	> 8
Ac-MCPPTEFCDAFRD-NH2 (linker 2-8 via mXylylene; SMILES CSCC[C@H](NC(C)=O)C(=O)N[C@H]1CSCc2cccc(c2)CSC[C@@H](C(=O)N[C@@H](CC(=O)O)C(=O)N[C@@H](C)C(=O)N[C@@H](Cc2ccccc2)C(=O)N[C@@H](CCCNC(=N)N)C(=O)N[C@@H](CC(=O)O)C(N)=O)NC(=O)[C@H](Cc2ccccc2)NC(=O)[C@H](CCC(=O)O)NC(=O)[C@H]([C@@H](C)O)NC(=O)[C@@H]2CCCN2C(=O)[C@@H]2CCCN2C1=O, also called 3BP-3195) [Ac-Met-[Cys(3MeBn)-Pro-Pro-Thr-Glu-Phe-Cys]-Asp-Ala-Phe-Arg-Asp-NH2]	7.1 pIC50 and 8 pIC50	> 8
Ac-MCPPTEFCDHARD-NH2 (linker 2-8 via mXylylene; SMILES CSCC[C@H](NC(C)=O)C(=O)N[C@H]1CSCc2cccc(c2)CSC[C@@H](C(=O)N[C@@H](CC(=O)O)C(=O)N[C@@H](Cc2c[nH]cn2)C(=O)N[C@@H](C)C(=O)N[C@@H](CCCNC(=N)N)C(=O)N[C@@H](CC(=O)O)C(N)=O)NC(=O)[C@H](Cc2ccccc2)NC(=O)[C@H](CCC(=O)O)NC(=O)[C@H]([C@@H](C)O)NC(=O)[C@@H]2CCCN2C(=O)[C@@H]2CCCN2C1=O, also called 3BP-3196) [Ac-Met-[Cys(3MeBn)-Pro-Pro-Thr-Glu-Phe-Cys]-Asp-His-Ala-Arg-Asp-NH2]	> 8 pIC50	> 8
Ac-MCPPTEFCDHFRA-NH2 (linker 2-8 via mXylylene; SMILES CSCC[C@H](NC(C)=O)C(=O)N[C@H]1CSCc2cccc(c2)CSC[C@@H](C(=O)N[C@@H](CC(=O)O)C(=O)N[C@@H](Cc2c[nH]cn2)C(=O)N[C@@H](Cc2ccccc2)C(=O)N[C@@H](CCCNC(=N)N)C(=O)N[C@@H](C)C(N)=O)NC(=O)[C@H](Cc2ccccc2)NC(=O)[C@H](CCC(=O)O)NC(=O)[C@H]([C@@H](C)O)NC(=O)[C@@H]2CCCN2C(=O)[C@@H]2CCCN2C1=O, also called 3BP-3198) [Ac-Met-[Cys(3MeBn)-Pro-Pro-Thr-Glu-Phe-Cys]-Asp-His-Phe-Arg-Ala-NH2]	> 8 pIC50	> 8
Ac-MCGPTEFCDHFRD-NH2 (linker 2-8 via mXylylene; SMILES CSCC[C@H](NC(C)=O)C(=O)N[C@H]1CSCc2cccc(c2)CSC[C@@H](C(=O)N[C@@H](CC(=O)O)C(=O)N[C@@H](Cc2c[nH]cn2)C(=O)N[C@@H](Cc2ccccc2)C(=O)N[C@@H](CCCNC(=N)N)C(=O)N[C@@H](CC(=O)O)C(N)=O)NC(=O)[C@H](Cc2ccccc2)NC(=O)[C@H](CCC(=O)O)NC(=O)[C@H]([C@@H](C)O)NC(=O)[C@@H]2CCCN2C(=O)CNC1=O, also called 3BP-3214) [Ac-Met-[Cys(3MeBn)-Gly-Pro-Thr-Glu-Phe-Cys]-Asp-His-Phe-Arg-Asp-NH2]	> 8 pIC50	> 8
Hexanoyl-CPPTEFC[βAla]-OH (linker 1-7 via mXylylene; SMILES CCCCCC(=O)N[C@H]1CSCc2cccc(c2)CSC[C@@H](C(=O)NCCC(=O)O)NC(=O)[C@H](Cc2ccccc2)NC(=O)[C@H](CCC(=O)O)NC(=O)[C@H]([C@@H](C)O)NC(=O)[C@@H]2CCCN2C(=O)[C@@H]2CCCN2C1=O, also called 3BP-3371) [Hex-[Cys(3MeBn)-Pro-Pro-Thr-Glu-Phe-Cys]-Bal-OH]	7.1 pIC50 and 8 pIC50	> 8
Hexanoyl-CPPTQFCD[Ttds″]-{NH(CH2)5NH2-DOTA′} (linker 1-7 via mXylylene, also called 3BP-3404) [Hex-[Cys(3MeBn)-Pro-Pro-Thr-Gln-Phe-Cys]-Asp-Ttds-Ape-NH-DOTA′]	> 8 pIC50	> 8
Hexanoyl-CPPTQFCD-{NH(CH2)5NH2-DOTA′} (linker 1-7 via mXylylene, also called 3BP-3403) [Hex-[Cys(3MeBn)-Pro-Pro-Thr-Gln-Phe-Cys]-Asp-Ape-NH-DOTA′]	> 8 pIC50	> 8
Hexanoyl-CPPTQFCS-OH (linker 1-7 via TBMB(SCH2CH2NH-DOTA); SMILES CCCCCC(=O)N[C@H]1CSCc2cc(CSCCNC(=O)CN3CCN(CC(=O)O)CCN(CC(=O)O)CCN(CC(=O)O)CC3)cc(c2)CSC[C@@H](C(=O)N[C@@H](CO)C(=O)O)NC(=O)[C@H](Cc2ccccc2)NC(=O)[C@H](CCC(N)=O)NC(=O)[C@H]([C@@H](C)O)NC(=O)[C@@H]2CCCN2C(=O)[C@@H]2CCCN2C1=O, also called 3BP-3658) [Hex-[Cys(tMeBn(DOTA-AET))-Pro-Pro-Thr-Gln-Phe-Cys]-Ser-OH]	> 8 pIC50	> 8
Hexanoyl-CPPTQFCG-OH (linker 1-7 via TBMB(SCH2CH2NH-DOTA); SMILES CCCCCC(=O)N[C@H]1CSCc2cc(CSCCNC(=O)CN3CCN(CC(=O)O)CCN(CC(=O)O)CCN(CC(=O)O)CC3)cc(c2)CSC[C@@H](C(=O)NCC(=O)O)NC(=O)[C@H](Cc2ccccc2)NC(=O)[C@H](CCC(N)=O)NC(=O)[C@H]([C@@H](C)O)NC(=O)[C@@H]2CCCN2C(=O)[C@@H]2CCCN2C1=O, also called 3BP-3656) [Hex-[Cys(tMeBn(DOTA-AET))-Pro-Pro-Thr-Gln-Phe-Cys]-Gly-OH]	> 8 pIC50	> 8
